Target: recombinant Ebola virus (EBOV) glycoprotein (Zaire ebolavirus (EBOV)) (UniProt Q05320)
Assay: SEC

recombinant Ebola virus (EBOV) glycoprotein (from UniProt Q05320) (natural protein)
stoichiometry N: 3
